Tests used:
HvUGT14077 [1] = biological target: T1, HvUGT14077 (Hordeum vulgare, UniProt D3WYW3); experiment: LC-MS/MS of glucoside formation; assay type: biochemical; parameters: gene UGT; nHis6-MalE-TEV-HvUGT14077 fusion (tags kept), E. coli BL21 (DE3), IMAC, predicted 97 kDa incl. tags
T1 sequence (D3WYW3 1-490): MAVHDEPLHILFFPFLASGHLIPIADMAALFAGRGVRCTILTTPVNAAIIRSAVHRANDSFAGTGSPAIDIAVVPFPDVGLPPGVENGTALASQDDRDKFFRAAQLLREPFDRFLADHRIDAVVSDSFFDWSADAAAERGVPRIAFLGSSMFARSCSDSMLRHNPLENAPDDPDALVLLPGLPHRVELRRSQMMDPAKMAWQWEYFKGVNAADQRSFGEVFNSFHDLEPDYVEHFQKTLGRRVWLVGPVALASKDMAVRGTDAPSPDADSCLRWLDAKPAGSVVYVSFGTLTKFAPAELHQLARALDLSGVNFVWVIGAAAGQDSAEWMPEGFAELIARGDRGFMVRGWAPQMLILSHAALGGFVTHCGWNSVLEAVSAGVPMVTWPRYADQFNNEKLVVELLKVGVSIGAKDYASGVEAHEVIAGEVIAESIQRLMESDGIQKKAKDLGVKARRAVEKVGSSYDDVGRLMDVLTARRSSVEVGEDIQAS

HvUGT14077 [2] = biological target: T1, HvUGT14077; experiment: LC-MS/MS, steady state, sum of […]- and 16-glucosides, Haldane fit; parameters: gene UGT; settings: read-out: Kinetic Constant / Km; 10 mM UDP-glucose; 100 mM Tris/Cl pH 7.5, 37 °C; apparent Km, substrate inhibition model
purified protein [3] = substrate: C[C@H]1CCC[C@H](O)CCC/C=C/c2cc(O)cc(O)c2C(=O)O1; experiment: purified protein; settings: 10 mM UDP-glucose, 100 mM Tris/Cl pH 7.5, 37 °C, apparent Km, substrate inhibition model
purified protein [4] = substrate: C[C@H]1CCC[C@@H](O)CCC/C=C/c2cc(O)cc(O)c2C(=O)O1; experiment: purified protein; settings: 10 mM UDP-glucose, 100 mM Tris/Cl pH 7.5, 37 °C, apparent Km, substrate inhibition model
purified protein [5] = substrate: O=c1ccn([C@@H]2O[C@H](CO[P@@](=O)(O)O[P@@](=O)(O)O[C@H]3O[C@H](CO)[C@@H](O)[C@H](O)[C@H]3O)[C@@H](O)[C@H]2O)c(=O)[nH]1; experiment: purified protein; settings: 25 µM zearalenone, 100 mM Tris/Cl pH 7.5, 37 °C

## O=c1ccn([C@@H]2O[C@H](COP(=O)(O)OP(=O)(O)O)[C@@H](O)[C@H]2O)c(=O)[nH]1 [UDP]
HvUGT14077 [1]
  IC50: 340 µM

## C[C@H]1CCCC(=O)CCC/C=C/c2cc(O)cc(O)c2C(=O)O1 [ZEN, Zearalenone]
HvUGT14077 [2]
  Km: 3 ± 1 µM

B1: HvUGT14077 (Hordeum vulgare subsp. vulgare) (protein)
chain: T1 sequence (D3WYW3 1-490)
Purified protein [3]
  Km: 13 ± 2 µM
  Vmax: 0.32 µmol/min/mg
  kcat: 0.52 ± 0.05 s⁻¹
  kcat/Km: 40000 M⁻¹ s⁻¹
Purified protein [4]
  Km: 27 ± 3 µM
  Vmax: 1.2 µmol/min/mg
  kcat: 2 ± 0.1 s⁻¹
  kcat/Km: 74000 M⁻¹ s⁻¹
Purified protein [5]
  Km: 78 ± 9 µM
